Here are results for three molecules from patent publication US20210155691A1, “METHODS OF PREVENTING OR TREATING NON-HEMATOPOIETIC SLAMF7 POSITIVE AND SLAMF7 NEGATIVE CANCERS” (ADAERATA, LIMITED PARTNERSHIP, priority 2018, published 2021).

Assay [1] concerns thymocytes. The assay is described as follows: Induction of apoptosis in thymocytes (annexin V). The conditions noted are these: 1 μM; 10 hours at 37° C.; thymocytes from C57BL/6 mice; data not shown. The format is cell-based, mouse.
For assay [2], the target named is T1, mouse CD11b (integrin alphaM, alpha subunit of Mac-1) (mouse, UniProt P05555 17-1153).
T1 construct: whole, on cells; Endogenous protein in macrophage lysates; It forms Mac-1 together with CD18; also called Mac-1 (CD11b); CR3 alpha subunit
T1 sequence (P05555 17-1153): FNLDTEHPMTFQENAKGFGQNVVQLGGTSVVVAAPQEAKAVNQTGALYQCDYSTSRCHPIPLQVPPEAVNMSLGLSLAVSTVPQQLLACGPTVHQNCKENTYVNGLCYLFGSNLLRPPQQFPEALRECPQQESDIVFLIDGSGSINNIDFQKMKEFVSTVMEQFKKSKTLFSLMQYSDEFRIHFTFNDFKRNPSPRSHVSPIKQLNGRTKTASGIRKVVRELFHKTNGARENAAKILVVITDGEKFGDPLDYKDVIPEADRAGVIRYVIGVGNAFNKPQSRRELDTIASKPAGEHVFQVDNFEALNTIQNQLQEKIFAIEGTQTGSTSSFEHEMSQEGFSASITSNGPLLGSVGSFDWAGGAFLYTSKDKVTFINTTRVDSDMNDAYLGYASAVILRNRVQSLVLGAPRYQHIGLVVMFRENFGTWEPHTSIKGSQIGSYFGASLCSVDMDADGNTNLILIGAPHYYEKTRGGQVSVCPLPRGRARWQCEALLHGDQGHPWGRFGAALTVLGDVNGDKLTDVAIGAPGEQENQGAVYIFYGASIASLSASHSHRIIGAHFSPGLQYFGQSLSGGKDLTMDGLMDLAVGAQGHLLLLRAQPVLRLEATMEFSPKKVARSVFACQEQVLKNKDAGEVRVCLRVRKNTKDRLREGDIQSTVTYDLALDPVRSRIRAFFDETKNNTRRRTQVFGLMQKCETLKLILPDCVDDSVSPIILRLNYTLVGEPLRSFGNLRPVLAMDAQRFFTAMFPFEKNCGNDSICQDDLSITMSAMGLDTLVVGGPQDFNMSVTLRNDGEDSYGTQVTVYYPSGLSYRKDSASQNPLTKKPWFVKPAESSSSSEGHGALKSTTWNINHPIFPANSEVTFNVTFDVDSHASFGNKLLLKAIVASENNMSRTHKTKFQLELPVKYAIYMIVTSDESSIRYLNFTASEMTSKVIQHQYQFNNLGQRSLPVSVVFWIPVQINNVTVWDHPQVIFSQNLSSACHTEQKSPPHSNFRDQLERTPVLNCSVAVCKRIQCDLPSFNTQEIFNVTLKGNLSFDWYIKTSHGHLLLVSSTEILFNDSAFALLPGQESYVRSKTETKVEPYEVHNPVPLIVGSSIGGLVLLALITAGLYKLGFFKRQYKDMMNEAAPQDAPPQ
In words: anti-CD11b immunoprecipitation from BMDM lysates, mass spectrometry. The procedure:
Authenticated cells. (FIG. 9D) Lysates from the mouse macrophage cell line RAW264.7 expressing GFP alone or in combination with a FLAG-tagged version of mouse SLAMF7 (FLAG-SLAMF7) were immunoprecipitated with anti-FLAG. They were then probed by immunoblotting with anti-CD11b (Mac-1) or anti-SLAMF7. Total cell lysates were analyzed in parallel. (FIG. 9E) Co-localization of SLAMF7 and CD11b in RAW264.7 cells expressing GFP alone or with FLAG-SLAMF7 assessed by immunofluorescence. Semi-confluent RAW264.7 cells expressing GFP alone (bottom) or in combination with FLAG-SLAMF7 (top) were fixed and stained with antibodies against FLAG, CD11b (Mac-1) or CD18, as detailed in Example 1. Staining was detected by confocal microscopy. Scale bar, 5 μm. […] (FIG. 9F) As in FIG. 9E, except that only RAW264.7 cells expressing FLAG-SLAMF7 were analyzed and that antibodies coupled to different fluorophores were used. […] (FIGS. 9G-A and 9G-B) RAW264.7 derivatives expressing GFP alone or in combination with FLAG-SLAMF7 were analyzed by flow cytometry, using antibodies directed against FLAG and SLAMF7 (dotted lines). […]
Immunoprecipitations, mass spectrometry, immunoblots. […] In brief, immunoprecipitated proteins were digested with trypsin (Promega, Madison, Wis.) and analyzed by LC-MS/MS on a LTQ Orbitrap™ Velos (ThermoFisher Scientific, Bremen, Germany) equipped with a Proxeon Nanoelectrospray™ ion source. […]

As to `C[C@@H]1C[C@H]2[C@@H]3CCC4=CC(=O)C=C[C@]4(C)[C@@]3(F)[C@@H](O)C[C@]2(C)[C@@]1(O)C(=O)CO` [dexamethasone], the “cells becoming apoptotic (annexin V-positive)” value in assay [1] is recorded as “about 70%”.

B1: mouse CD16 (Fc receptor) (receptor, UniProt P08508 31-261, looked up)
chain: ALPKAVVKLDPPWIQVLKEDMVTLMCEGTHNPGNSSTQWFHNGRSIRSQVQASYTFKATVNDSGEYRCQMEQTRLSDPVDLGVISDWLLLQTPQRVFLEGETITLRCHSWRNKLLNRISFFHNEKSVRYHHYKSNFSIPKANHSHSGDYYCKGSLGSTQHQSKPVTITVQDPATTSSISLVWYHTAFSLVMCLLFAVDTGLYFYVRRNLQTPREYWRKSLSIRKHQAPQDK
notes: whole, on cells; Endogenous protein in macrophage lysates
For the molecule B1, the binding result in assay [2] is on record as “no binding”.

B2: mouse CD64 (Fc receptor) (receptor, UniProt P26151 25-404, looked up)
chain: EVVNATKAVITLQPPWVSIFQKENVTLWCEGPHLPGDSSTQWFINGTAVQISTPSYSIPEASFQDSGEYRCQIGSSMPSDPVQLQIHNDWLLLQASRRVLTEGEPLALRCHGWKNKLVYNVVFYRNGKSFQFSSDSEVAILKTNLSHSGIYHCSGTGRHRYTSAGVSITVKELFTTPVLRASVSSPFPEGSLVTLNCETNLLLQRPGLQLHFSFYVGSKILEYRNTSSEYHIARAEREDAGFYWCEVATEDSSVLKRSPELELQVLGPQSSAPVWFHILFYLSVGIMFSLNTVLYVKIHRLQREKKYNLEVPLVSEQGKKANSFQQVRSDGVYEEVTATASQTTPKEAPDGPRSSVGDCGPEQPEPLPPSDSTGAQTSQS
notes: as for B1
As for B2, the binding result in assay [2] is “no binding”.
